Reference: publication doi:10.1101/391136

Assays:
S100A1 [1] = experiment: ITC
S100A1 [2] = experiment: other fluorescence titration

Kd (S100A1 [1]): 6.37 µM
stoichiometry N (S100A1 [1]): 1
Kd (S100A1 [2]): 10 µM
Substance: S100A4 (from UniProt P26447 4-101) (natural protein)
